Columns and labels:
[1] = target: T1, human PD-1 (human, UniProt Q15116 25-167, limits assumed); assay: SPR, variant captured on protein A, PD1 analyte
T1 construct: Recombinant protein used in SPR as analyte or amine-coupled ligand; also called PD1 antigen
Experimental: EDC: 1-ethyl-3-(3-dimethylaminopropyl) carbodiimide hydrochloride; NHS: N-Hydroxysuccinimide; SPR: surface plasmon resonance; EDTA: ethylenediaminetetraacetic acid SPR Supplies Series S Sensor Chip CM5, Biacore amine coupling kit (NHS, EDC and 1 M ethanolamine), and 10 mM sodium acetate buffers were purchased from Cytiva Life Sciences (Marlborough, MA). […] PBS running buffer with 1% Tween20 (PBST) was purchased from Teknova Inc. (Hollister, Calif.). Goat polyclonal anti-human Fc antibody was purchased from Jackson Immuno Research Laboratories Inc. (West Grove, Pa.). EDTA was purchased from Bioshop (Burlington, ON). All SPR assays were carried out using a Biacore T200 Surface Plasmon Resonance instrument (Cytiva Life Sciences, (Marlborough, MA)) with PBST running buffer (with 0.5 M EDTA stock solution added to 3.4 mM final concentration) at a temperature of 25° C. […]
The first flow cell was left empty to use as a blank control. […] Buffer injections were performed for each analyte injection to be used for referencing.

[2] = target: T2, human IL-15 (human, UniProt P40933 49-162); assay: SPR, variant captured on anti-human Fc, IL-15 analyte, single-cycle kinetics, 1:1 fit
T2 construct: also called Premium grade IL-15; GMP grade human IL-15
Experimental: EDC: 1-ethyl-3-(3-dimethylaminopropyl) carbodiimide hydrochloride; NHS: N-Hydroxysuccinimide; SPR: surface plasmon resonance; EDTA: ethylenediaminetetraacetic acid SPR Supplies Series S Sensor Chip CM5, Biacore amine coupling kit (NHS, EDC and 1 M ethanolamine), and 10 mM sodium acetate buffers were purchased from Cytiva Life Sciences (Marlborough, MA). […] PBS running buffer with 1% Tween20 (PBST) was purchased from Teknova Inc. (Hollister, Calif.). Goat polyclonal anti-human Fc antibody was purchased from Jackson Immuno Research Laboratories Inc. (West Grove, Pa.). EDTA was purchased from Bioshop (Burlington, ON). All SPR assays were carried out using a Biacore T200 Surface Plasmon Resonance instrument (Cytiva Life Sciences, (Marlborough, MA)) with PBST running buffer (with 0.5 M EDTA stock solution added to 3.4 mM final concentration) at a temperature of 25° C. The anti-human Fc capture surface was generated using a Series S Sensor Chip CM5 using the default parameters under the Immobilization Wizard in the Biacore T200 control software which was set to target 3000 resonance units (RUs).
The first flow cell was left empty to use as a blank control. […] The captured antibody surfaces were regenerated twice by 10 mM Glycine pH1.5 for 30 seconds at 30 μL/min. Buffer injections were performed for each analyte injection to be used for referencing.

[3] = target: T2, human IL-15; assay: SPR, variant captured on immobilised PD1, IL-15 analyte, single-cycle kinetics, 1:1 fit
[4] = target: T1, human PD-1; assay: SPR, variant as analyte over immobilised PD1 (avidity possible)
[5] = target: T1, human PD-1; assay: SPR, variant as analyte over immobilised PD1
[6] = target: T1, human PD-1; assay: SPR, variant as analyte over immobilised PD1 (avidity possible); PD1 capture surface, RV29 as analyte (third entry of the cell; avidity possible)

T1 sequence (Q15116 25-167 limits assumed): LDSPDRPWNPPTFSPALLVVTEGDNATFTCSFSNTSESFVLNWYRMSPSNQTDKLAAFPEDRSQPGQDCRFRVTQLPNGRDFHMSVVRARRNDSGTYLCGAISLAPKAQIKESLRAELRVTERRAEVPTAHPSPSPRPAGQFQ
T2 sequence (P40933 49-162 limits assumed): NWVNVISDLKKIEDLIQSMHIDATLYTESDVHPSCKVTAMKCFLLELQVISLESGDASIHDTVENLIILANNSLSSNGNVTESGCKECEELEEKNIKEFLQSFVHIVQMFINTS

Binder	Kd [1]	Kd [2]	Kd [3]	Kd [4]	Kd [5]	Kd [6]
RV31 (bispecific antibody, human IgG1, kappa, lambda, L234A L235A, Dual Fab domain format (H1H1L1L1L2L2), IgG1 LALAPG; Purity 83 % main peak; O-glycosylation reported, likely in the inter-Fab linker) heavy: not shown light 1: EIVLTQSPATLSLSPGERATLSCRASKGVSTSGYSYLHWYQQKPGQAPRLLIYLASYLESGVPARFSGSGSGTDFTLTISSLEPEDFAVYYCQHSRDLPLTFGGGTKVEIKRTVAAPSVFIFPPKDERLKSGTASVVCLLNNFYPREAKVQWKVDNALQSGNSQESVTEQDSKDSTYSLSSRLTLSKADYEKHKVYACEVTHQGLSSPVTKSFNRGEC light 2: QSVLTQPPSASGTPGQRVTISCSGSTSNLKRNYVYWYQQLPGTAPKLLIYRDRRRPSGVPDRFSGSKSGTSASLAISGLRSEDEADYYCAWYDRELSEWVFGGGTKLTVLQPKAAPSVTLFPPSDEELQANTATLVCLISDFYPGAVTVAWKADSSPVKAGVETTTPSKQSNNKYAAESELSLTPEQWKSHRSYSCQVTHEGSTVEKTVAPTECS		0.18 nM	0.717 nM	0.163 nM		
RV26 (bispecific antibody, human IgG1, lambda, L234A L235A, Heterodimeric IgG1 LALAPG, two anti-IL-15 Fabs and one anti-PD1 scFv (H1H2L1L1); also called fusion of 1 scFv to a HC of a bispecific antibody in Fab-Fab format (RV26)) heavy 1: QVQLVQSGAEVKKPGASVKVSCKASGYSFSSFGISWVRQAPGQGLEWLGWISAFNGYTKYAQKFQDRVTMTTDTSTSTAYMELRSLRSDDTAVYYCARDPAAWPLQQSLAWFDPWGQGTMVTVSSASTKGPSVFPLAPSSKSTSGGTAALGCLVKDYFPEPVTVSWNSGALTSGVHTFPAVLQSSGLYSLSSVVTVPSSSLGTQTYICNVNHKPSNTKVDKKVEPKSCDKTHTCPPCPAPEAAGGPSVFLFPPKPKDTLMISRTPEVTCVVVDVSHEDPEVKFNWYVDGVEVHNAKTKPREEQYNSTYRVVSVLTVLHQDWLNGKEYKCKVSNKALGAPIEKTISKAKGQPREPQVYVYPPSRDELTKNQVSLTCLVKGFYPSDIAVEWESNGQPENNYKTTPPVLDSDGSFALVSKLTVDKSRWQQGNVFSCSVMHEALHNHYTQKSLSLSPGKGGGGSGGGGSGGGGSGGGGSEIVLTQSPATLSLSPGERATLSCRASKGVSTSGYSYLHWYQQKPGQAPRLLIYLASYLESGVPARFSGSGSGTDFTLTISSLEPEDFAVYYCQHSRDLPLTFGCGTKVEIKGGSGGGSGGGSGGGSGGGSGQVQLVQSGVEVKKPGASVKVSCKASGYTFTNYYMYWVRQAPGQCLEWMGGINPSNGGTNFNEKFKNRVTLTTDSSTTTAYMELKSLQFDDTAVYYCARRDYRFDMGFDYWGQGTTVTVSS heavy 2: QVQLVQSGAEVKKPGASVKVSCKASGYSFSSFGISWVRQAPGQGLEWLGWISAFNGYTKYAQKFQDRVTMTTDTSTSTAYMELRSLRSDDTAVYYCARDPAAWPLQQSLAWFDPWGQGTMVTVSSASTKGPSVFPLAPSSKSTSGGTAALGCLVKDYFPEPVTVSWNSGALTSGVHTFPAVLQSSGLYSLSSVVTVPSSSLGTQTYICNVNHKPSNTKVDKKVEPKSCDKTHTCPPCPAPEAAGGPSVFLFPPKPKDTLMISRTPEVTCVVVDVSHEDPEVKFNWYVDGVEVHNAKTKPREEQYNSTYRVVSVLTVLHQDWLNGKEYKCKVSNKALGAPIEKTISKAKGQPREPQVYVLPPSRDELTKNQVSLLCLVKGFYPSDIAVEWESNGQPENNYLTWPPVLDSDGSFFLYSKLTVDKSRWQQGNVFSCSVMHEALHNHYTQKSLSLSPG light: not shown		0.396 nM			2.19 nM	
RV1 (antibody, human IgG1, lambda, V domains shown, also called anti-IL-15 antibody (RV1); DISC0280-derived monospecific parent antibody) VH: QVQLVQSGAEVKKPGASVKVSCKASGYSFSSFGISWVRQAPGQGLEWLGWISAFNGYTKYAQKFQDRVTMTTDTSTSTAYMELRSLRSDDTAVYYCARDPAAWPLQQSLAWFDPWGQGTMVTVSS VL: QSVLTQPPSASGTPGQRVTISCSGSTSNLKRNYVYWYQQLPGTAPKLLIYRDRRRPSGVPDRFSGSKSGTSASLAISGLRSEDEADYYCAWYDRELSEWVFGGGTKLTVLQ		0.349 nM				

These reach a lower Kd [2]. Values come first.

Kd [1]	Kd [2]	Kd [3]	Kd [4]	Kd [5]	Kd [6]	Binder
97 nM	0.116 nM	0.111 nM	0.243 nM			RV36 (bispecific antibody, human IgG1, kappa, L234A L235A, Dual variable domain format like RV29 but with a longer inter-Fv linker, IgG1 LALAPG) heavy: not shown light: QSVLTQPPSASGTPGQRVTISCSGSTSNLKRNYVYWYQQLPGTAPKLLIYRDRRRPSGVPDRFSGSKSGTSASLAISGLRSEDEADYYCAWYDRELSEWVFGGGTKLTVLGGGGSGGGGSGGGGSGGGGSEIVLTQSPATLSLSPGERATLSCRASKGVSTSGYSYLHWYQQKPGQAPRLLIYLASYLESGVPARFSGSGSGTDFTLTISSLEPEDFAVYYCQHSRDLPLTFGGGTKVEIKRTVAAPSVFIFPPSDEQLKSGTASVVCLLNNFYPREAKVQWKVDNALQSGNSQESVTEQDSKDSTYSLSSTLTLSKADYEKHKVYACEVTHQGLSSPVTKSFNRGEC
	0.108 nM	0.352 nM	0.0678 nM			RV32 (bispecific antibody, human IgG1, kappa, lambda, L234A L235A, Dual Fab domain format (H1H1L1L1L2L2), IgG1 LALAPG; O-glycosylation reported, likely in the inter-Fab linker; also called bispecific antibody in dual Fab domain format (RV32); bispecific anti-PD-1 x anti-IL-15 antibody) heavy: not shown light 1: EIVLTQSPATLSLSPGERATLSCRASKGVSTSGYSYLHWYQQKPGQAPRLLIYLASYLESGVPARFSGSGSGTDFTLTISSLEPEDFAVYYCQHSRDLPLTFGGGTKVEIKRTVAAPSVFIFPPKDERLKSGTASVVCLLNNFYPREAKVQWKVDNALQSGNSQESVTEQDSKDSTYSLSSRLTLSKADYEKHKVYACEVTHQGLSSPVTKSFNRGEC light 2: QSVLTQPPSASGTPGQRVTISCSGSTSNLKRNYVYWYQQLPGTAPKLLIYRDRRRPSGVPDRFSGSKSGTSASLAISGLRSEDEADYYCAWYDRELSEWVFGGGTKLTVLQPKAAPSVTLFPPSDEELQANTATLVCLISDFYPGAVTVAWKADSSPVKAGVETTTPSKQSNNKYAAESELSLTPEQWKSHRSYSCQVTHEGSTVEKTVAPTECS
	0.108 nM			3.62 nM		RV15 (bispecific antibody, human IgG1, kappa, lambda, L234A L235A, Asymmetric IgG1 LALAPG heterodimer, one anti-PD1 Fab arm and one anti-IL-15 Fab arm (H1H2L1L2); also called bispecific antibody in a Fab-Fab format (RV15)) heavy 1: QVQLVQSGVEVKKPGASVKVSCKASGYTFTNYYMYWVRQAPGQGLEWMGGINPSNGGTNFNEKFKNRVTLTTDSSTTTAYMELKSLQFDDTAVYYCARRDYRFDMGFDYWGQGTTVTVSSASTKGPSVFPLAPSSKSTSGGTAALGCEVTDYFPEPVTVSWNSGALTSGVHTFPAVLESSGLYSLSSVVTVPSSSLGTQTYICNVNHKPSNTKVDKKVEPDSCDKTHTCPPCPAPEAAGGPSVFLFPPKPKDTLMISRTPEVTCVVVDVSHEDPEVKFNWYVDGVEVHNAKTKPREEQYNSTYRVVSVLTVLHQDWLNGKEYKCKVSNKALGAPIEKTISKAKGQPREPQVYVYPPSRDELTKNQVSLTCLVKGFYPSDIAVEWESNGQPENNYKTTPPVLDSDGSFALVSKLTVDKSRWQQGNVFSCSVMHEALHNHYTQKSLSLSPG light 1: EIVLTQSPATLSLSPGERATLSCRASKGVSTSGYSYLHWYQQKPGQAPRLLIYLASYLESGVPARFSGSGSGTDFTLTISSLEPEDFAVYYCQHSRDLPLTFGGGTKVEIKRTVAAPSVFIFPPKDERLKSGTASVVCLLNNFYPREAKVQWKVDNALQSGNSQESVTEQDSKDSTYSLSSRLTLSKADYEKHKVYACEVTHQGLSSPVTKSFNRGEC heavy 2: QVQLVQSGAEVKKPGASVKVSCKASGYSFSSFGISWVRQAPGQGLEWLGWISAFNGYTKYAQKFQDRVTMTTDTSTSTAYMELRSLRSDDTAVYYCARDPAAWPLQQSLAWFDPWGQGTMVTVSSASTKGPSVFPLRPSSKSTSGGTAALGCLVKDYFPEPVTVSWNSGALTSGVHTFPAVLQSSGLYSLKSVVTVPSSSLGTQTYICNVNHKPSNTKVDKKVEPKSCDKTHTCPPCPAPEAAGGPSVFLFPPKPKDTLMISRTPEVTCVVVDVSHEDPEVKFNWYVDGVEVHNAKTKPREEQYNSTYRVVSVLTVLHQDWLNGKEYKCKVSNKALGAPIEKTISKAKGQPREPQVYVLPPSRDELTKNQVSLLCLVKGFYPSDIAVEWESNGQPENNYLTWPPVLDSDGSFFLYSKLTVDKSRWQQGNVFSCSVMHEALHNHYTQKSLSLSPG light 2: QSVLTQPPSASGTPGQRVTISCSGSTSNLKRNYVYWYQQLPGTAPKLLIYRDRRRPSGVPDRFSGSKSGTSASLAISGLRSEDEADYYCAWYDRELSEWVFGGGTKLTVLQPKAAPSVTLFPPSDEELQANTATLVCLISDFYPGAVTVAWKADSSPVKAGVETTTPSKQSNNKYAAESELSLTPEQWKSHRSYSCQVTHEGSTVEKTVAPTECS
	0.114 nM	0.339 nM			2.35 nM	RV29 (bispecific antibody, human IgG1, kappa, L234A L235A, Dual variable domain format, IgG1 LALAPG; also called bispecific antibody in DVD format (RV29); bispecific anti-PD-1 x anti-IL-15 antibody) heavy: not shown light: QSVLTQPPSASGTPGQRVTISCSGSTSNLKRNYVYWYQQLPGTAPKLLIYRDRRRPSGVPDRFSGSKSGTSASLAISGLRSEDEADYYCAWYDRELSEWVFGGGTKLTVLGGGGSGGGGSEIVLTQSPATLSLSPGERATLSCRASKGVSTSGYSYLHWYQQKPGQAPRLLIYLASYLESGVPARFSGSGSGTDFTLTISSLEPEDFAVYYCQHSRDLPLTFGGGTKVEIKRTVAAPSVFIFPPSDEQLKSGTASVVCLLNNFYPREAKVQWKVDNALQSGNSQESVTEQDSKDSTYSLSSTLTLSKADYEKHKVYACEVTHQGLSSPVTKSFNRGEC

Reference: patent US12692305 (REVERB THERAPEUTICS, dated 2026)
